PMC9880813 (Genomics, Proteomics & Bioinformatics, 2021)

Columns and labels:
YC157-bFos = YC157-bFos (UniProt P01100 118-210); experiment: split reporter (BiFC, NanoBiT); settings: partners not purified
YC157-ΔbFos = experiment: split reporter (BiFC, NanoBiT)

Chain of YC157-bFos (P01100 118-210): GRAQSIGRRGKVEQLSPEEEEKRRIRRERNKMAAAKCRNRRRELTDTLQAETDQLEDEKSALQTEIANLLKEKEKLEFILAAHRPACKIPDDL

B1: YN157-bJun (domain or fragment, UniProt P05412 257-318, looked up)
chain: RKRMRNRIAASKCRKRKLERIARLEEKVKTLKAQNSELASTANMLREQVAQLKQKVMNHVNS
percentage of fluorescent cells, fold over the negative group (YN157-bJun + YC157-ΔbFos) (YC157-bFos): 7 fold
signal-to-noise ratio of all cells (against YN157-bJun + YC157-ΔbFos) (YC157-bFos): 33 ratio
signal-to-noise ratio of fluorescent cells (against YN157-bJun + YC157-ΔbFos) (YC157-bFos): 4 ratio
fluorescence-positive cell ratio (YC157-ΔbFos): 0.5%
